Source: patent US20250049970A1, “DLL3 TARGETING PEPTIDES AND CONSTRUCTS THEREOF” (MARIANA ONCOLOGY INC., priority 2023, published 2025)
Values joined by “and” are separate entries in the source; they are usually repeats but may differ in a detail not shown here. Identical values can stand only once. Blank lines part the entries; values can stand above or below the molecule they belong to. *1 amine or outer side, *2 acyl side, *3 side chain or, on linkers, in order; H or OH if unused. Where a SMILES comes first, the peptide text is derived from it. Bridges are numbered along the chain shown (N, C = ends). [ ]: non-standard residue; d: D form. The star is where a group is joined. Ala(piperidin-4-yl) = O=C([C@H](CC1CCN([*:3])CC1)N[*:1])[*:2]; DOTA = O=C(O)CN1CCN(CC(=O)O)CCN(CC(=O)*)CCN(CC(=O)O)CC1; 2Nal = N[C@@H](Cc1ccc2ccccc2c1)C(=O)O; aIle = CC[C@@H](C)[C@H](N)C(=O)O

Tests used:
[1] = molecular target: T1, DLL3 (Homo sapiens, UniProt Q9NYJ7); test: SPR binding affinity of cyclic peptides (SEQ ID NOs), SA sensor chip, Biacore S200; settings: 25° C., 1:1 binding model
T1 sequence (Q9NYJ7 27-618): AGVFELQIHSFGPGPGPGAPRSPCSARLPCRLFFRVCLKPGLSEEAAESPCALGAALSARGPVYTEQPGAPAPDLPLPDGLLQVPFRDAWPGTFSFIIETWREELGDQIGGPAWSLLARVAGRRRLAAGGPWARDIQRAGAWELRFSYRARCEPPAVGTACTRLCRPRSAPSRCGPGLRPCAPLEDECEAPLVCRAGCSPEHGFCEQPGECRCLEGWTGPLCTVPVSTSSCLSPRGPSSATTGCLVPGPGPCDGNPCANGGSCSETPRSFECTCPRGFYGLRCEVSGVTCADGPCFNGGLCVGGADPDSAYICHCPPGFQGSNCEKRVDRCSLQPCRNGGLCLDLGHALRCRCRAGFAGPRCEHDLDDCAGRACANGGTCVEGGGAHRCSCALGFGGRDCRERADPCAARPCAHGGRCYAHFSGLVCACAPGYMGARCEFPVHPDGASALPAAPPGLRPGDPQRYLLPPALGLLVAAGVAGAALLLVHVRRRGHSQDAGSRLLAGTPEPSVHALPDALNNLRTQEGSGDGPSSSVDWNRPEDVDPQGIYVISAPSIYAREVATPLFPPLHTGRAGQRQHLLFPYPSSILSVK
Description: The binding affinity and binding kinetic parameters at 25° C. were determined using Biacore S200 instrument. Target ligand was immobilized on a SA sensor chip via streptavidin capture. A reference surface was set up for nonspecific binding and refractive index changes. For analysis of the kinetics of interactions, varying concentrations of peptides were injected at a flow rate of 50 μL/minute using running buffer containing 20 mM phosphate buffer with 2.7 mM KCl, 137 mM NaCl and 0.05% Surfactant P20. Sensorgram curves were fitted with 1:1 binding model, and affinity and kinetic parameters were obtained using either Biacore S200 evaluation software 1.1.1 or Biacore Insight evaluation 4.0.

[2] = molecular target: T2, Biotinylated target ligand human DLL3 (human, UniProt Q9NYJ7 27-492, limits assumed, biotinylated (site not stated)); test: SPR, biotinylated human DLL3 on streptavidin chip; A = KD<=1.0 nM
T2 sequence: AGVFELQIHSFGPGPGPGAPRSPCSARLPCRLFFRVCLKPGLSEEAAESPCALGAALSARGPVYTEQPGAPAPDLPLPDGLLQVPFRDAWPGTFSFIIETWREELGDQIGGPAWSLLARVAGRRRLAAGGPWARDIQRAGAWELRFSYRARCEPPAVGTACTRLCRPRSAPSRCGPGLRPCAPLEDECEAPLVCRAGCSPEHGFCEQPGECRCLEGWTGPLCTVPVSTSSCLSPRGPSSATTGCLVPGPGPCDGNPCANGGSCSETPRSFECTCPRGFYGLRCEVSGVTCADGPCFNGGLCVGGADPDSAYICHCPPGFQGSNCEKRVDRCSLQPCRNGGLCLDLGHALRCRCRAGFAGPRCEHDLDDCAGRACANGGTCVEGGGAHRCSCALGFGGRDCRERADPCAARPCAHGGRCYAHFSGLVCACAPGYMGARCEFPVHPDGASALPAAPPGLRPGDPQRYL
Description: (§1) Biotinylated target ligand human DLL3 was immobilized on a streptavidin sensor chip. A reference surface was set up for nonspecific binding and refractive index changes. For analysis of the kinetics of interactions, varying concentrations of samples were injected at a flow rate of 100 μL/minute using running buffer containing 20 mM phosphate buffer with 2.7 mM KCl, 137 mM NaCl, 0.05% Surfactant P20 and 2% DMSO. Sensorgram curves were fitted with 1:1 binding model, and affinity and kinetic parameters were obtained using Biacore Insight evaluation 4.0. software.

[3] = molecular target: T3, DLL3 on SHP-77 cells (human, UniProt Q9NYJ7 27-618); test: [177Lu]Lu-labelled peptide on SHP-77 cells, 1 h 37 C, gamma counter; B = 25<%<=50
T3 construct: SHP-77 cells are human-derived, non-engineered SCLC cells
T3 sequence: T1 sequence (Q9NYJ7 27-618)

[4] = molecular target: DLL3 on CT26.DLL3 cells (Homo sapiens (Human)) (UniProt Q9NYJ7); test: [177Lu]Lu-labelled peptide on CT26.DLL3 cells, 1 h 37 C, gamma counter; A = %<=25
[5] = molecular target: T2, Biotinylated target ligand human DLL3; test: SPR, biotinylated human DLL3 on streptavidin chip; B = 1.0 nM<KD<=10 nM; upper limit of grade B
Description: as §1

[6] = molecular target: T2, Biotinylated target ligand human DLL3; test: SPR, biotinylated human DLL3 on streptavidin chip; B = 1.0 nM<KD<=10 nM; lower limit of grade B
Description: as §1

Molecule: Ac-WT[aIle]C[Ala(piperidin-4-yl)]N[2Nal]K(DOTA)DCWP-NH2 (disulfide 4-10) [Cpd No. 303]
Kd [2]: < 1 nM
% Binding [3]: > 25% and < 50%
% Binding [4]: < 25%

Molecule: Ac-MWTICNNWHDCWP-NH2 (disulfide 5-11) [Cpd No. 1]
Kd [5]: ≤ 10 nM
Kd [6]: > 1 nM

Next, values leading:

Kd [1]: 47 nM
Molecule: CC[C@H](C)[C@H](NC(=O)[C@@H](NC(=O)[C@H](Cc1c[nH]c2ccccc12)NC(=O)[C@H](CCSC)NC(C)=O)[C@@H](C)O)C(=O)N[C@H]1CSSC[C@@H](C(=O)N[C@@H](Cc2c[nH]c3ccccc23)C(=O)N2CCC[C@H]2C(N)=O)NC(=O)[C@H](CC(=O)O)NC(=O)[C@H](Cc2cnc[nH]2)NC(=O)[C@H](Cc2c[nH]c3ccccc23)NC(=O)[C@H](CC(N)=O)NC(=O)[C@@H](C)NC1=O [compound 82] (Ac-MWTIC[dA]NWHDCWP-NH2; disulfide 5-11)

Kd [1]: 150 nM
Molecule: CSCC[C@H](NC(C)=O)C(=O)N[C@@H](Cc1c[nH]c2ccccc12)C(=O)N[C@@H](CCSC)C(=O)N[C@@H](CC(C)C)C(=O)N[C@H]1CSSC[C@@H](C(=O)N[C@@H](Cc2c[nH]c3ccccc23)C(=O)N2CCC[C@H]2C(N)=O)NC(=O)[C@H](CC(=O)O)NC(=O)[C@H](CCCCN)NC(=O)[C@H](CC(=O)O)NC(=O)[C@H](Cc2c[nH]c3ccccc23)NC(=O)[C@H](CC(=O)O)NC1=O [compound 77] (Ac-MWMLCDWDKDCWP-NH2; disulfide 5-11)
